From US6080542A, “Plant peptide transport gene” (priority 1997, dated 2000)
Where two headings read alike, the source gives them in different places. Where a SMILES comes first, the peptide text is derived from it. Where no end group is shown, it is not given here. [ ]: non-standard residue; d: D form. hCys = N[C@@H](CCS)C(=O)O; Eth = ethionine

Key:
[1] = system: PB1X-9B (pJP9); assay: Toxic peptide disk assay, mutant with yeast peptide transport gene; type: cell-based, Saccharomyces cerevisiae; conditions: for diameter of zone of inhibition: disk with 0.38 μmoles, lawn of 5×10^6 cells, 30° C., 1 to 2 days, mean ± standard error
Experimental: (§1) Since ptr mutants are deficient in peptide transport, they are unable to take up toxic peptides. This inability renders such mutants resistant to the toxic effect of the peptides. In order to determine whether the polynucleotides of the present invention could restore toxic peptide sensitivity to ptr2 mutants, the sensitivity of plasmid-transformed cells was determined. Sensitivity to toxic amino acids and peptides was measured as described by Island, M. D. et al. (J. Bacteriol. 169:2132-2136 (1987)). Briefly, a filter disk containing 0.38 μmoles of the toxic compound was placed on a lawn containing 5×10^6 cells and the plate incubated at 30° C. for 1 to 2 days. Resulting halos were measured across their diameter. The toxic dipeptides Leu-Eth, Ala-Eth, Leu-F-Phe and Oxalysine were synthesized by standard solution phase techniques (Naider, F. et al., J. Biol. Chem. 249:9-20 (1974). The results of this experiment are shown in Table 2 (values are the mean of the diameters of the observed zone of inhibition in millimeters±standard error of the mean of at least two independent experiments).

[2] = system: S288C; assay: Toxic peptide disk assay, wild type; type: cell-based, Saccharomyces cerevisiae; conditions: for diameter of zone of inhibition: disk with 0.38 μmoles, lawn of 5×10^6 cells, 30° C., 1 to 2 days, mean ± standard error
Experimental: as §1

[3] = system: PB1X-9B(pJP2); assay: Dipeptide utilization, L-alanyl-L-ethionine sensitivity and dileucine transport of secondary transformants; type: cell-based, Saccharomyces cerevisiae
Experimental: Plasmid pJP2 was then reintroduced into PB1X-9B. The resulting secondary yeast transformants were tested for the ability to use a variety of dipeptides as sources of amino acids and for sensitivity to the toxic dipeptide L-alanyl-L-ethionine. Thus, strains were grown in YEPG broth at 30° C. to a titer of 10^8 cells per ml. The cells were harvested by centrifugation, washed twice with sterile water and resuspended at 1.0×10^7 cells per ml. A 5-μl aliquot was applied to solid MM containing dipeptides and amino acids as required. Four types of solid media were routinely used in assessing dipeptide utilization: MM+L-leucyl-L-leucine-L-lysine+L-histidine, MM-L-lysI-L-lysine-L-leucine-L-histidine (SEQ ID NO:12), MM-L-lysl-L-leucine-L-histidine, and MM-L-histydyl-L-leucine-L-lysine. All dipeptides were present at a concentration of 80 μM, while amino acids and nucleotide bases were added as required at standard concentrations (Sherman, F. et al., In: Methods in Yeast Genetics, Cold Spring Harbor Laboratory, Clod Spring Harbor, N.Y. (1986)). The plates were incubated at 30° C. for 48 hours and then scored for growth.

[4] = system: A. thaliana seedlings; assay: Root elongation of seedlings exposed to toxic peptides; type: in vivo, Arabidopsis thaliana
Experimental: (§2) Thus, A. thaliana seeds and seedlings were exposed to Ethionine, Ala-Eth, Leu-Eth, Leu-fluorophenylalanine or oxalysine containing peptides, and the minimum inhibitory concentrations (MIC) were determined for each of the toxic compounds.
Approximately 15 A. thaliana seeds were placed in a row at one end of 10 cm plate containing 20 ml of Arabidopsis growth media (Kranz and Kirchheim 1987). The seeds were incubated 3-5 days in the light with the plate set in an upright position. When the roots were approximately 1-2 cm long, sterile paper filter disks were placed immediately in front of the root tips on the right and left side of the plate 2 cm from the edge of the plate. A line was drawn across the plate using the top of the disks as a guide marking zero growth. 5 μl of toxic amino acid analog, toxic peptide, or toxic peptide plus competitor was added to one disk while H2 O was place on the other disk. The plates were incubated for an additional 3-5 days. The average length of the roots was measured from the line and the results expressed as a percentage of control root growth.

[5] = system: A. thaliana seeds; assay: Seed germination with toxic peptides (minimum inhibitory concentration); type: in vivo, Arabidopsis thaliana; conditions: A. thaliana seeds
Experimental: as §2
To measure the minimum inhibitory concentration of the toxic peptides, 10 to 15 A. thaliara seeds were place on solid Arabidopsis growth media with decreasing concentrations of toxic peptide. The seeds were incubated for 4 days in the dark and then scored for germination.

[6] = system: PB1X-9B (pPTF4); assay: Toxic peptide disk assay, mutant with plant gene ATPTR2A; type: cell-based, Saccharomyces cerevisiae; conditions: for diameter of zone of inhibition: disk with 0.38 μmoles, lawn of 5×10^6 cells, 30° C., 1 to 2 days, mean ± standard error
Experimental: as §1

[7] = system: ATPTR2Ap; assay: Uptake of L-leucyl-L-[3H]leucine and competition, PB1X-9B[pPTF4]; conditions: PB1X-9B transformed with pPTF4, compared with wild type, trifluoroacetic acid (TFA)
Experimental: The kinetics of ATPTR2A-mediated transport of peptides in yeast was evaluated by transforming pPTF4 into the S. cerevisiae peptide transport mutant, PB1X-9B and measuring the uptake of tritiated Leu-Leu dipeptide.
L-leucyl-L [^3 H]leucine trifluoroacetic acid (TFA) was synthesized by standard solution phase techniques (Naider, F. et al., J. Biol. Chem. 249:9-20 (1974)). Uptake of L-leucyl-L-[H]leucine was performed as by Island, M. D. et al (J. Bacteriol. 169:2132-2136 (1987)), with the following modifications. Cells were grown to late log phase (26×10^7 cells/ml) overnight in SC with 2% glucose, 1 mg/ml allantoin plus amino acids to supplement auxotrophic markers. To induce peptide transport. 5-15 ml from this culture was added to 100 ml fresh medium such that the density was 3.0×10^6 cells/ml. This culture was allowed to grow (approx. 2 hrs.) to a density of 6.0×10^6 cells/ml and then harvested by centrifugation. The pelleted cells were washed twice with 10 ml cold dH2 O and suspended in cold 2% glucose to a final concentration of 2×10^8 cells/ml and incubated at 30° C. for 15 min. 500 μl of cells were then added to an equal volume of reaction mixture (30° C.) and incubated at 30°-C. At 20, 40, 60, 90, and 120 sec. intervals, 190 μl portions were removed, filtered over filters (pore size, 0.45 μm; GN-6; Gelman Sciences, Inc., Ann Arbor, Mich.) and washed 2 times with 5 ml cold, sterile dH2 O and once with 5 ml dH2 O at room temperatures. Filters were placed in scintillation vials with 5 ml of Budget-Solve scintillation cocktail (Research Products International Corp., Mount Prospect, Ill.) and counted (liquid scintillation counter; LS-7000; Beckman Instruments, Inc., Fullerton, Calif.). The final concentration of the components in the uptake assay was 1% glucose, 40 mM sodium citrate-potassium phosphate buffer (pH 5.5), and 1.5×105 M L-leucyl-L-[^3 H]leucine (specific activity, 10 mCi/mmole). Uptake is expressed as nanomoles per mg dry weight.

[8] = system: S. cerevisiae strains tested; assay: Toxic peptide disk assay, statements covering several strains; type: cell-based, Saccharomyces cerevisiae; conditions: wild type (S288C) and transformants
Experimental: as §1

[9] = target: T1, Lys-Leu-Leu-Ala-Eth; assay: cell-based or functional assay
T1 peptide: KLLA-Eth

[10] = target: T2, Lys-Leu-Leu-Leu-Eth; assay: cell-based or functional assay
T2 peptide: KLLL-Eth

[11] = target: Leu-Eth
[12] = target: Leu-F-Phe
[13] = target: Lys-Leu-Leu-Eth
[14] = target: Lys-Ala-Eth
[15] = target: Lys-Leu-Eth
[16] = target: Lys-Leu-Ala-Eth
[17] = target: L-alanyl-L-ethionine
[18] = target: T3, Met-Met; assay: cell-based or functional assay
T3 peptide: MM

[19] = target: T4, Ala-Ala-Ala; assay: cell-based or functional assay
T4 peptide: AAA

[20] = target: T5, Ala-Ala; assay: cell-based or functional assay
T5 peptide: AA

[21] = target: Leu-Eth; remark: listed apart in the source
[22] = target: L-alanyl-L-ethionine; remark: listed apart in the source

Molecule | diameter of zone of inhibition [1] [millimeters] | diameter of zone of inhibition [2] [millimeters] | amount that inhibits root elongation of seedlings [4] | amount that inhibits germination of seeds [5] | sensitivity or resistance to toxic compound [6] | diameter of zone of inhibition [6] [millimeters] | diameter of the zone of inhibition, disk assay with 0.38 µmoles [9] [mm] | diameter of the zone of inhibition, disk assay with 0.38 µmoles [10] [mm] | diameter of the zone of inhibition, disk assay with 0.38 µmoles [11] [mm] | diameter of the zone of inhibition, disk assay with 0.38 µmoles [12] [mm] | diameter of the zone of inhibition, disk assay with 0.38 µmoles [13] [mm] | diameter of the zone of inhibition, disk assay with 0.38 µmoles [14] [mm] | diameter of the zone of inhibition, disk assay with 0.38 µmoles [15] [mm] | diameter of the zone of inhibition, disk assay with 0.38 µmoles [16] [mm] | diameter of the zone of inhibition, disk assay with 0.38 µmoles [17] [mm] | further results
CCSCC[C@H](NC(=O)[C@H](C)N)C(=O)O [Ala-Eth, L-alanyl-L-ethionine] (H-Ala-[hCys](Et)-OH) | 42.5 ± 2.5 | 33.5 ± 2.5 | 0.038 µmol | 0.038 µmol | restores sensitivity | 35.0 ± 1.0 | – | – | – | – | – | – | – | – | – | sensitivity to toxic dipeptide [3]: sensitive
L-leucyl-L [^3 H]leucine trifluoroacetic acid (TFA) [[H^3]-dileucine] | – | – | – | – | – | – | – | – | – | – | – | – | – | – | – | transport of radiolabeled dileucine ([3]; compared with wild type): levels approximating those of the wild type; uptake of radiolabeled dileucine ([7]; listed as radiolabeled dileucine): comparable to that of wild type; uptake of radiolabeled dileucine [7]: wild-type levels
Leu-fluorophenylalanine [Leu-F-Phe] | 20.5 ± 3.0 | 28.0 ± 4.0 | not inhibited | not inhibited | restores sensitivity | 37.0 ± 1.0 | – | – | – | – | – | – | – | – | – | appearance of halo [1]: hazy background within the halo; sensitivity to toxic compound [8]: less sensitive; appearance of halo [2]: hazy background within the halo; sensitivity or resistance to toxic compound ([6]; listed as leucine-fluorophenylaianine): greater and more complete sensitivity
yeast peptide transporter SACPTR2p (other) MLNHPSQGSDDAQDEKQGDFPVIEEEKTQAVTLKDSYVSDDVANSTERYNLSPSPEDEDFEGPTEEEMQTLRHVGGKIPMRCWLIAIVELSERFSYYGLSAPFQNYMEYGPNDSPKGVLSLNSQGATGLSYFFQFWCYVTPVFGGYVADTFWGKYNTICCGTAIYIAGIFILFITSIPSVGNRDSAIGGFIAAIILIGIATGMIKANLSVLIADQLPKRKPSIKVLKSGERVIVDSNITLQNVFMFFYFMINVGSLSLMATTELEYHKGFWAAYLLPFCFFWIAVVTLIFGKKQYIQRPIGDKVIAKSFKVCWILTKNKFDFNAAKPSVHPEKNYPWNDKFVDEIKRALAACKVFIFYPIYWTQYGTMISSFITQASMMELHGIPNDFLQAFDSIALIIFIPIFEKFVYPFIRRYTPLKPITKIFFGFMFGSFAMTWAAVLQSFVYKAGPWYNEPLGHNTPNHVHVCWQIPAYVLISFSEIFASITGLEYAYSKAPASMKSFIMSIFLLTNAFGSAIGCALSPVTVDPKFTWLFTGLAVACFISGCLFWLCFRKYNDTEEEMNAMDYEEEDEFDLNPISAPKANDIEILEPMESLRSTTKY | – | – | – | – | – | – | 0 | 0 | 47 | 20.5 | 0 | 36 | 36 | 0 | 42.5 | –
ATPTR2Ap protein (other) MSSIEEQITKSDSDFIISEDQSYLSKEKKADGSATINQADEQSSTDELQKSMSTGVLVNGDLYPSPTEEELATLPSVCGTIPWKAFIIIIVELCERFAYYGLTVPFQNYMQFGPKDATPGALNLGETGADGLSNFFTFWCYVTPVGAALIADQFLGRYNTIVCSAVIYFIGILILTCTAIPSVIDAGKSMGGFVVSLIIIGLGTGGIKSNVSPLMAEQLPKIPPYVKTKKNGSKVIVDPVVTTSRAYMIFYWTINVGSLSVLATTSLESTKGFVYAYLLPLCVFVIPLIILAVSKTAFTSTLLPPVPSLFVLVKCSSLLLKTNLISKKLNHLALLLLERYVKDQWDDLFIDELKRALRACKTFLFYPIYWVCYGQMTNNLISQAGQMQTGNVSNDLFQAFDSIALIIFIPICDNIIYPLLRKYNIPFKPILRITLGFMFATASMIYAAVLQAKIYQRGPCYANFTDTCVSNDISVWIQIPAYVLIAFSEIFASITGLEFAFTKAPPSMKSIITALFLFTNAFGAILSICISSTAVNPKLTWMYTGIAVTAFIAGIMFWVCFHHYDAMEDEQNQLEFKRNDALTKKDVEKEVHDSYSMADESQYNLEKANC | – | – | – | – | – | – | 0 | 0 | 45 | 37 | 0 | 37.5 | 35 | 0 | 35 | reversal by a competitor peptide of the inhibition of A. thaliana root growth by Ala-Eth or Leu-Eth [18]: 40 % of control root growth; reversal by a competitor peptide of the inhibition of A. thaliana root growth by Ala-Eth or Leu-Eth [19]: 0 % of control root growth; reversal by a competitor peptide of the inhibition of A. thaliana root growth by Ala-Eth or Leu-Eth [20]: 0 % of control root growth; inhibition of germination of A. thaliana seeds and of root elongation of seedlings [21]: 0.038 µmol; inhibition of germination of A. thaliana seeds and of root elongation of seedlings [22]: 0.038 µmol
